This assay has as its target alanine or glycine:cation symporter (AgcS) from Methanococcus maripaludis (Methanococcus maripaludis, UniProt Q6LX42). As to the kind of experiment: crystal structure.

Sequence of alanine or glycine:cation symporter (AgcS) from Methanococcus maripaludis (Q6LX42 whole entry): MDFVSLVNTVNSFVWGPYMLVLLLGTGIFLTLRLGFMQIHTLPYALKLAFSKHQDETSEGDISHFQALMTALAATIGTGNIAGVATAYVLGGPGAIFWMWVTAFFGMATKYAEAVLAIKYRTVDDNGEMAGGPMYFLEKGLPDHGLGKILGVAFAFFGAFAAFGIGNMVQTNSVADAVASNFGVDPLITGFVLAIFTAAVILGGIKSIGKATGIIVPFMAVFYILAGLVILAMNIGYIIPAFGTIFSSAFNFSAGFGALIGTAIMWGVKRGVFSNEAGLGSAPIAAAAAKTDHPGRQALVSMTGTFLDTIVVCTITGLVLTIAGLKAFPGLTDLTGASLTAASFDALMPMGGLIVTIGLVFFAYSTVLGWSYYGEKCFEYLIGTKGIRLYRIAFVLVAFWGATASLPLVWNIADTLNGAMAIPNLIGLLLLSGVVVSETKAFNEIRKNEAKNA

B1: 7B4 Fab fragment (Fab, V domains shown)
VH: EVKLEESGGGLVQPGGSMKLSCAASGFTSSDFAMDWVRQSPEAGLEWVAEIAASERHYAESVKGRFTISRDDSKSSVYLQMNSLRAEDSGLYYCTRTAGACGQWGTGTTVTVSS
VL: DIAMTQSPASLSASVGETVTITCRTSENIASALAWYQQKQGKSPQLLVMNAKTLAAGVPSRFSGSGSGTAFSLKINSLQPEDFGSYSCQHAAGWLLTFGGGTKLEIK
As to B1, the binding result is reported as “binds”.

These data come from doi:10.1101/293811 (bioRxiv, 2018).
